4 molecules from patent publication US20110263454A1, “Methods of Identifying Functional Characteristics of Promoters, Transcription Modifying Proteins and Transcription Modulating Agents” (Salk Institute for Biological Studies, priority 2008, published 2011) can be followed below.

One assay concerns hTNFa promoter. The assay is described as follows: NHR-promoter luciferase screen, hTNFa promoter. It counts as cell-based, human. To be noted: for Luc. act., normalized to lacZ / Normalized Luc. act., normalized to control: TNFa promoter, HR component without or with ligand; for hTNFa promoter reporter activity: transcription factor +/- ligand, control = 1.00. An outline of the steps:
(§1)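 CV-1 cells were co-transfected with 50 ng NHR (homodimer or NHR/RXR heterodimer), 100 ng promoter-luciferase construct and 50 ng LacZ. Luciferase was normalized to LacZ and to a no-NHR/no-ligand control.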

The subject of a further assay is hMDR1 promoter. The assay is described as follows: NHR-promoter luciferase screen, hMDR1 promoter. It counts as cell-based, human. To be noted: for Luc. act., normalized to lacZ / Normalized Luc. act., normalized to control: MDR1 promoter, HR/ligand component; for hMDR1 promoter reporter activity: transcription factor +/- ligand, control = 1.00. An outline of the steps: as §1

The test system of another assay is mAgrp promoter. Put plainly: NHR-promoter luciferase screen, mAgrp promoter. The following applies: for Results of assays of transcription factor (+/- ligand) with mAgrp: Table 6d, luciferase activity relative to control (control = 1.00); for Luc. act., normalized to lacZ / Normalized Luc. act., normalized to control: mAgrp promoter, HR component with or without ligand; for Normalized Luc. act., normalized to control: relative to control. It counts as cell-based, mouse. A digest of the protocol:
as §1

Another assay deals with hPOMC promoter. The assay is described as follows: NHR-promoter luciferase screen, hPOMC promoter. It counts as cell-based, human. To be noted: for Normalized Luc. act., normalized to control / Luc. act., normalized to lacZ: hPOMC promoter, HR/ligand component; for hPOMC promoter reporter activity: transcription factor +/- ligand, control = 1.00. A digest of the protocol: as §1

Another assay concerns mADRP promoter. The assay is described as follows: NHR-promoter luciferase screen, mADRP promoter. It counts as cell-based, mouse. The following applies: for Luc. act., normalized to lacZ / Normalized Luc. act., normalized to control: ADRP promoter, HR/ligand component; for mADRP promoter reporter activity: transcription factor +/- ligand, control = 1.00. A digest of the protocol: as §1

A further assay deals with mDio1 promoter. The assay is described as follows: NHR-promoter luciferase screen, mDio1 promoter. It counts as cell-based, mouse. To be noted: for Luc. act., normalized to lacZ / Normalized Luc. act., normalized to control: Dio1, HR component without or with its ligand; for mDio1 promoter reporter activity: transcription factor +/- ligand, control = 1.00. A digest of the protocol: as §1

B1: CTF1: COUP-TF1 (NR2F1), cDNA driver (protein, UniProt P10589 1-423, looked up)
COUP transcription factor 1: MAMVVSSWRDPQDDVAGGNPGGPNPAAQAARGGGGGAGEQQQQAGSGAPHTPQTPGQPGAPATPGTAGDKGQGPPGSGQSQQHIECVVCGDKSSGKHYGQFTCEGCKSFFKRSVRRNLTYTCRANRNCPIDQHHRNQCQYCRLKKCLKVGMRREAVQRGRMPPTQPNPGQYALTNGDPLNGHCYLSGYISLLLRAEPYPTSRYGSQCMQPNNIMGIENICELAARLLFSAVEWARNIPFFPDLQITDQVSLLRLTWSELFVLNAAQCSMPLHVAPLLAAAGLHASPMSADRVVAFMDHIRIFQEQVEKLKALHVDSAEYSCLKAIVLFTSDACGLSDAAHIESLQEKSQCALEEYVRSQYPNQPSRFGKLLLRLPSLRTVSSSVIEQLFFVRLVGKTPIETLIRDMLLSGSSFNWPYMSIQCS
On to B1, for which, in the assay on hTNFa promoter, the “Luc. act., normalized to lacZ” value is 728.5; the “Normalized Luc. act., normalized to control” value stood at 0.7; the “hTNFa promoter reporter activity” value stood at 0.74. Further, in the assay with hMDR1 promoter, the “Luc. act., normalized to lacZ” value is listed as 0.3; the “Normalized Luc. act., normalized to control” value is listed as 0.9; the “hMDR1 promoter reporter activity” value was 0.92. In addition, in the assay on mAgrp promoter, the “Results of assays of transcription factor (+/- ligand) with mAgrp” value (from here on “Results of assays … with mAgrp”) was found to be 0.71; the “Luc. act., normalized to lacZ” value is listed as 28.2; the “Normalized Luc. act., normalized to control” value stood at 0.7. In the assay on hPOMC promoter, the “Normalized Luc. act., normalized to control” value turned out to be 0.0 and the “hPOMC promoter reporter activity” value was determined as 0.00. In addition, in the assay on mADRP promoter, the “Luc. act., normalized to lacZ” value came out at 393.3; the “Normalized Luc. act., normalized to control” value is given as 0.8; the “mADRP promoter reporter activity” value came out at 0.79. In the assay on mDio1 promoter, the “Luc. act., normalized to lacZ” value was 17.3; the “Normalized Luc. act., normalized to control” value was found to be 3.9; the “mDio1 promoter reporter activity” value turned out to be 3.89.

B2: ERR2: Estrogen Related Receptor β (NR3B2, ERRb), cDNA driver (protein, UniProt O95718 1-433, looked up)
Steroid hormone receptor ERR2: MSSDDRHLGSSCGSFIKTEPSSPSSGIDALSHHSPSGSSDASGGFGLALGTHANGLDSPPMFAGAGLGGTPCRKSYEDCASGIMEDSAIKCEYMLNAIPKRLCLVCGDIASGYHYGVASCEACKAFFKRTIQGNIEYSCPATNECEITKRRRKSCQACRFMKCLKVGMLKEGVRLDRVRGGRQKYKRRLDSESSPYLSLQISPPAKKPLTKIVSYLLVAEPDKLYAMPPPGMPEGDIKALTTLCDLADRELVVIIGWAKHIPGFSSLSLGDQMSLLQSAWMEILILGIVYRSLPYDDKLVYAEDYIMDEEHSRLAGLLELYRAILQLVRRYKKLKVEKEEFVTLKALALANSDSMYIEDLEAVQKLQDLLHEALQDYELSQRHEEPWRTGKLLLTLPLLRQTAAKAVQHFYSVKLQGKVPMHKLFLEMLEAKV
With B2, in the assay on hTNFa promoter, the “Luc. act., normalized to lacZ” value came out at 1655.6; the “Normalized Luc. act., normalized to control” value turned out to be 1.7; the “hTNFa promoter reporter activity” value is 1.68. Besides, in the assay on hMDR1 promoter, the “Luc. act., normalized to lacZ” value stood at 0.4; the “Normalized Luc. act., normalized to control” value came out at 1.2; the “hMDR1 promoter reporter activity” value was 1.20. In the assay on mAgrp promoter, the “Results of assays … with mAgrp” value turned out to be 1.64; the “Luc. act., normalized to lacZ” value came out at 65.0; the “Normalized Luc. act., normalized to control” value is 1.6. The “luciferase/LacZ, mAgrp (selected results)” value with mAgrp promoter (mAgrp promoter-luciferase, NHR +/- ligand, control = 1.0) is 1.6. In addition, in the assay on hPOMC promoter, the “Luc. act., normalized to lacZ” value was 11.6; the “Normalized Luc. act., normalized to control” value amounted to 2.7; the “hPOMC promoter reporter activity” value amounted to 2.70. Further, in the assay on mADRP promoter, the “Luc. act., normalized to lacZ” value turned out to be 874.7; the “Normalized Luc. act., normalized to control” value amounted to 1.8; the “mADRP promoter reporter activity” value was determined as 1.76. In the assay on mDio1 promoter, the “Luc. act., normalized to lacZ” value was 13.6; the “Normalized Luc. act., normalized to control” value is reported as 3.1; the “mDio1 promoter reporter activity” value was 3.05.

B3: ERR3: Estrogen Related Receptor γ (NR3B3, ERRg), cDNA driver (protein, UniProt P62508 1-458, looked up)
Estrogen-related receptor …: MDSVELCLPESFSLHYEEELLCRMSNKDRHIDSSCSSFIKTEPSSPASLTDSVNHHSPGGSSDASGSYSSTMNGHQNGLDSPPLYPSAPILGGSGPVRKLYDDCSSTIVEDPQTKCEYMLNSMPKRLCLVCGDIASGYHYGVASCEACKAFFKRTIQGNIEYSCPATNECEITKRRRKSCQACRFMKCLKVGMLKEGVRLDRVRGGRQKYKRRIDAENSPYLNPQLVQPAKKPYNKIVSHLLVAEPEKIYAMPDPTVPDSDIKALTTLCDLADRELVVIIGWAKHIPGFSTLSLADQMSLLQSAWMEILILGVVYRSLSFEDELVYADDYIMDEDQSKLAGLLDLNNAILQLVKKYKSMKLEKEEFVTLKAIALANSDSMHIEDVEAVQKLQDVLHEALQDYEAGQHMEDPRRAGKMLMTLPLLRQTSTKAVQHFYNIKLEGKVPMHKLFLEMLEAKV
On to B3, for which, in the assay with hTNFa promoter, the “Luc. act., normalized to lacZ” value was 2705.8; the “Normalized Luc. act., normalized to control” value amounted to 2.8; the “hTNFa promoter reporter activity” value amounted to 2.75. Moreover, in the assay on hMDR1 promoter, the “Luc. act., normalized to lacZ” value is reported as 0.2; the “Normalized Luc. act., normalized to control” value worked out at 0.8; the “hMDR1 promoter reporter activity” value stood at 0.79. In the assay on mAgrp promoter, the “Results of assays … with mAgrp” value turned out to be 2.12; the “Luc. act., normalized to lacZ” value is on record as 84.0; the “Normalized Luc. act., normalized to control” value stood at 2.1. In addition, in the assay with hPOMC promoter (hPOMC promoter-luciferase, NHR +/- ligand, control = 1.0), the “luciferase/LacZ, hPOMC (selected results)” value turned out to be 4.1. In the assay with hPOMC promoter, the “Luc. act., normalized to lacZ” value came to 17.6; the “Normalized Luc. act., normalized to control” value was found to be 4.1; the “hPOMC promoter reporter activity” value came to 4.09. Besides, in the assay with mADRP promoter, the “mADRP promoter reporter activity” value stood at 3.37. Besides, in the assay on mDio1 promoter, the “Luc. act., normalized to lacZ” value amounted to 5.9; the “Normalized Luc. act., normalized to control” value was determined as 1.3; the “mDio1 promoter reporter activity” value is given as 1.32.

B4: Erb: Estrogen Receptor β (NR3A2, ERb), cDNA driver (protein, UniProt Q92731 1-530, looked up)
Estrogen receptor beta: MDIKNSPSSLNSPSSYNCSQSILPLEHGSIYIPSSYVDSHHEYPAMTFYSPAVMNYSIPSNVTNLEGGPGRQTTSPNVLWPTPGHLSPLVVHRQLSHLYAEPQKSPWCEARSLEHTLPVNRETLKRKVSGNRCASPVTGPGSKRDAHFCAVCSDYASGYHYGVWSCEGCKAFFKRSIQGHNDYICPATNQCTIDKNRRKSCQACRLRKCYEVGMVKCGSRRERCGYRLVRRQRSADEQLHCAGKAKRSGGHAPRVRELLLDALSPEQLVLTLLEAEPPHVLISRPSAPFTEASMMMSLTKLADKELVHMISWAKKIPGFVELSLFDQVRLLESCWMEVLMMGLMWRSIDHPGKLIFAPDLVLDRDEGKCVEGILEIFDMLLATTSRFRELKLQHKEYLCVKAMILLNSSMYPLVTATQDADSSRKLAHLLNAVTDALVWVIAKSGISSQQQSMRLANLLMLLSHVRHASNKGMEHLLNMKCKNVVPVYDLLLEMLNAHVLRGCKSSITGSECSPAEDSKSKEGSQNPQSQ
For B4, in the assay with hTNFa promoter, the “Luc. act., normalized to lacZ” value is 811.5; the “Normalized Luc. act., normalized to control” value is 0.8; the “hTNFa promoter reporter activity” value is 0.83. In the assay on hMDR1 promoter, the “Luc. act., normalized to lacZ” value stood at 0.3; the “Normalized Luc. act., normalized to control” value is recorded as 1.1; the “hMDR1 promoter reporter activity” value came to 1.06. Further, in the assay on mAgrp promoter, the “Results of assays … with mAgrp” value amounted to 0.98; the “Luc. act., normalized to lacZ” value is 39.0; the “Normalized Luc. act., normalized to control” value stood at 1.0. Moreover, in the assay with hPOMC promoter, the “Luc. act., normalized to lacZ” value came out at 3.2; the “Normalized Luc. act., normalized to control” value is 0.7; the “hPOMC promoter reporter activity” value is given as 0.74. Moreover, in the assay on mADRP promoter, the “Luc. act., normalized to lacZ” value is listed as 536.9; the “Normalized Luc. act., normalized to control” value is recorded as 1.1; the “mADRP promoter reporter activity” value stood at 1.08. Further, in the assay on mDio1 promoter, the “Luc. act., normalized to lacZ” value worked out at 9.3; the “Normalized Luc. act., normalized to control” value is recorded as 2.1; the “mDio1 promoter reporter activity” value is listed as 2.09.
